Test [1] concerns the target T1, HLA-B*0702 (HLA-B7) peptide complexes (Homo sapiens, UniProt P01889).
T1 construct: endogenous in cells; host or cells: JY B-lymphoblastoid line; primary ALL, CLL, HCL, AML samples; bone marrow; healthy B and T cells
As to the kind of experiment: HLA-B*0702 phosphopeptides associated with leukemia samples (isolation of HLA-associated peptides). The note with it: for Copies/cell class, ALL1: acute lymphoblastic leukemia sample ALL1; for Copies/cell class, B Cell: healthy B cells; for Copies/cell class, T Cell: healthy T cells; for Copies/cell class, HCL1: hairy cell leukemia sample HCL1; for Copies/cell class, BM: healthy bone marrow. The text has this:
To identify naturally processed tumor-associated phosphopeptides, HLA-A*0201 (HLA-A2) and HLA-B*0702 (HLA-B7) peptide complexes from four (4) chronic lymphocytic leukemia (CLL) tumor samples, a mantle cell lymphoma sample (MCL), one acute lymphoblastic leukemia (ALL), and an acute myeloid leukemia (AML) sample, in addition to healthy splenic T and B-cells and the cultured lymphoblastoid cell line JY were isolated. These efforts yielded 10 HLA-A2-restricted and 86 HLA-B7-restricted phosphopeptide antigens (see Tables 6 and 7).
All cell lines were grown at 37° C. with 5% CO2 in growth medium consisting of RPMI 1640 supplemented with 10% FCS and two mM L-glutamine. Blood or leukapheresis samples were taken from patients with high-burden leukemia in heparin. Tumor cells were recovered by layering the blood over density gradient (Ficoll) and collecting the tumor layer following centrifugation. The tumor was washed in tris-buffered saline (TBS). The purity of the tumor was assessed using flow cytometry and was >98% pure in all cases. For healthy T and B-cell populations, a normal spleen sample processed and tonsil sample was collected and lymphocytes released through mechanical disruption. Mononuclear cells were isolated using a density gradient and 10^9 T cells isolated using anti-CD19 or anti-CD3 microbeads (Miltenyi Biotec Inc., Auburn, California, United States of America) with purity >98% were obtained. Bone marrow sample was obtained from an elective orthopedic procedure and red cell-depleted using hypotonic lysis. This sample was not processed further.
Class I MHC molecules were immunoaffinity purified from the JY cell line or from primary tumor samples, and their associated peptides were extracted as previously described in Zarling et al., 2006. Approximately 1.2-14×10^9 cells were lysed in a solution containing 20 mM Tris-HCl (pH 8.0), 150 mM NaCl, 1% CHAPS, one mM PMSF, five μg/mL aprotinin, 10 μg/mL leupeptin, 10 μg/mL pepstatin A, 1 μg/ml calyculin A, and phosphatase inhibitor (cocktails I and II; Sigma-Aldrich). The mixture was subjected to centrifugation and the resulting supernatant was passed over protein A sepharose pre-loaded with the HLA-A2-specific antibody BB7.2 or HLA-B7-specific antibody MEL Peptides were eluted from the purified class I MHC molecules with 10% acetic acid.

For the next test, the target named is T2, HLA-B*0702 (Homo sapiens, UniProt P01889).
T2 construct: endogenous in cells; host or cells: melanoma and/or leukemia cells
As to the kind of experiment: Phosphopeptides presented in association with class I molecules (HLA-B*0702) on cancer cells: melanoma and/or leukemia. Set-up: key: Melanoma (M); Leukemia (L); L/M: Melanoma (M) and/or Leukemia (L). The note with it: cancer type on which the HLA-B*0702 phosphopeptide is presented.

Non-standard residues stand in square brackets, D forms with d. No end group written: not given here. pT = C[C@@H](OP(=O)(O)O)[C@H](N)C(=O)O; pS = N[C@@H](COP(=O)(O)O)C(=O)O

Regarding “363 (RTE[pS]DSGLKK; listed as Homo sapiens) [compound 363]”, in test [1], the “Copies/cell class, ALL1” value is listed as 1 (1 indicates <1 copy/cell). In the test with HLA-B*0702, the L/M result is “L”.

With “385 (TPAQPQRR[pS]L; listed as Homo sapiens) [compound 385]”, in test [1], the “Copies/cell class, ALL1” value is 1 (1 indicates <1 copy/cell). Besides, the L/M entry in the test with HLA-B*0702 is on record as “L”.

As to “333 (RPR[pS]PAARL; listed as Homo sapiens) [compound 333]”, in test [1], the “Copies/cell class, AML1” value is 1 (1 indicates <1 copy/cell). Also, in the test with HLA-B*0702, the L/M result is “L”.

For “360 (RSL[pS]PGGAA; listed as Homo sapiens) [compound 360]”, the “Copies/cell class, ALL1” value in test [1] was 1 (1 indicates <1 copy/cell). Moreover, the L/M entry with HLA-B*0702 is listed as “L”.

Take “324 (RPQRAT[pS]NVF; listed as Homo sapiens) [compound 324]”: in test [1], the “Copies/cell class, AML1” value is 2 (2 indicates 1-5 copies/cell); the “Copies/cell class, B Cell” value is 2 (2 indicates 1-5 copies/cell); the “Copies/cell class, T Cell” value was 3 (3 indicates 6-25 copies per cell). For the same substance, the L/M entry in the test with HLA-B*0702 was “L”.

For “270 (EPR[pS]PSHSM; listed as Homo sapiens) [compound 270]”, the “Copies/cell class, AML1” value in test [1] is given as 1 (1 indicates <1 copy/cell). In addition, the L/M result with HLA-B*0702 is on record as “L”.

With “338 (RPR[pS]PTGP; listed as Homo sapiens) [compound 338]”, the “Copies/cell class, AML1” value in test [1] is reported as 4 (4 indicates >25 copies per cell). Moreover, the L/M result with HLA-B*0702 was “L”.

On to “312 (RPD[pS]RLGKTEL; listed as Homo sapiens) [compound 312]”, for which, in test [1], the “Copies/cell class, AML1” value is listed as 2 (2 indicates 1-5 copies/cell); the “Copies/cell class, CLL2” value was 1 (1 indicates <1 copy/cell); the “Copies/cell class, JY” value is 4 (4 indicates >25 copies per cell); the “Copies/cell class, ALL1” value was 2 (2 indicates 1-5 copies/cell). For the same substance, in test [1], the “Copies/cell class, HCL1” value is given as 1 (1 indicates <1 copy/cell). Further, the L/M result with HLA-B*0702 was “L”.

With “386 (TPI[pS]PGRASGM; listed as Homo sapiens) [compound 386]”, the “Copies/cell class, ALL1” value in test [1] was 1 (1 indicates <1 copy/cell). In addition, the L/M result with HLA-B*0702 is “L”.

For the substance “368 (SPEKAGRR[pS]SL; listed as Homo sapiens) [compound 368]”, the “Copies/cell class, AML1” value in test [1] is 1 (1 indicates <1 copy/cell). In addition, the L/M result in the test with HLA-B*0702 is listed as “L”.

Turning to “327 (RPRPH[pS]APSL; listed as Homo sapiens) [compound 327]”, the “Copies/cell class, AML1” value in test [1] is 2 (2 indicates 1-5 copies/cell). In the test with HLA-B*0702, the L/M entry is reported as “L”.

As for “339 (RPR[pS]PTGP[pS]NSF; listed as Homo sapiens) [compound 339]”, the “Copies/cell class, AML1” value in test [1] is on record as 2 (2 indicates 1-5 copies/cell). Besides, in the test with HLA-B*0702, the L/M entry was “L”.

Take “320 (RPPPPPD[pT]PP; listed as Homo sapiens) [compound 320]”: in test [1], the “Copies/cell class, ALL1” value was 1 (1 indicates <1 copy/cell). For the same substance, the L/M result in the test with HLA-B*0702 is reported as “L”.

For the substance “358 (RSE[pS]KDRKL; listed as Homo sapiens) [compound 358]”, the “Copies/cell class, ALL1” value in test [1] is recorded as 1 (1 indicates <1 copy/cell). Also, in the test with HLA-B*0702, the L/M entry is “L”.

As for “278 (GPR[pS]ASLLSL; not fully specified; listed as Homo sapiens) [compound 278]”, the “Copies/cell class, AML1” value in test [1] is 3 (3 indicates 6-25 copies per cell). In the test with HLA-B*0702, the L/M entry is on record as “M”.

Take “285 (KPP[pS]PEHQSL; listed as Homo sapiens) [compound 285]”: the “Copies/cell class, ALL1” value in test [1] is on record as 1 (1 indicates <1 copy/cell). Moreover, the L/M result with HLA-B*0702 is “L”.

For “379 (SPR[pS]PSTTYL; listed as Homo sapiens) [compound 379]”, in test [1], the “Copies/cell class, AML1” value is 2 (2 indicates 1-5 copies/cell). The L/M entry with HLA-B*0702 is “L”.

On to “314 (RPH[pS]PEKAF; listed as Homo sapiens) [compound 314]”, for which, in test [1], the “Copies/cell class, AML1” value was 1 (1 indicates <1 copy/cell); the “Copies/cell class, CLL2” value was 1 (1 indicates <1 copy/cell); the “Copies/cell class, JY” value is 3 (3 indicates 6-25 copies per cell); the “Copies/cell class, ALL1” value is reported as 1 (1 indicates <1 copy/cell). In test [1], the “Copies/cell class, HCL1” value is on record as 1 (1 indicates <1 copy/cell). Moreover, the L/M entry with HLA-B*0702 is listed as “L”.

“346 (RPT[pS]RLNRL; listed as Homo sapiens) [compound 346]”: in test [1], the “Copies/cell class, AML1” value is 2 (2 indicates 1-5 copies/cell); the “Copies/cell class, CLL2” value is 2 (2 indicates 1-5 copies/cell); the “Copies/cell class, CLL4” value is reported as 2 (2 indicates 1-5 copies/cell); the “Copies/cell class, JY” value was 4 (4 indicates >25 copies per cell). For the same substance, in test [1], the “Copies/cell class, ALL1” value is reported as 2 (2 indicates 1-5 copies/cell); the “Copies/cell class, HCL1” value was 2 (2 indicates 1-5 copies/cell); the “Copies/cell class, B Cell” value was 2 (2 indicates 1-5 copies/cell). Also, the L/M entry in the test with HLA-B*0702 was “L”.

With “321 (RPP[pS]PGPVL; listed as Homo sapiens) [compound 321]”, in test [1], the “Copies/cell class, CLL2” value is on record as 1 (1 indicates <1 copy/cell); the “Copies/cell class, CLL4” value was 1 (1 indicates <1 copy/cell); the “Copies/cell class, JY” value is given as 4 (4 indicates >25 copies per cell); the “Copies/cell class, ALL1” value is recorded as 2 (2 indicates 1-5 copies/cell). In addition, in test [1], the “Copies/cell class, HCL1” value is given as 1 (1 indicates <1 copy/cell) and the “Copies/cell class, T Cell” value is listed as 2 (2 indicates 1-5 copies/cell). In the test with HLA-B*0702, the L/M result is “L”.

Turning to “370 (SPGLARKR[pS]L; listed as Homo sapiens) [compound 370]”, the “Copies/cell class, AML1” value in test [1] is 1 (1 indicates <1 copy/cell). Besides, the L/M result with HLA-B*0702 is given as “L”.

As to “366 (RVR[pS]PTRSP; listed as Homo sapiens) [compound 366]”, the “Copies/cell class, AML1” value in test [1] is 2 (2 indicates 1-5 copies/cell). Further, the L/M entry with HLA-B*0702 is on record as “L”.

As for “371 (SPK[pS]PGLKA; listed as Homo sapiens) [compound 371]”, in test [1], the “Copies/cell class, AML1” value is 1 (1 indicates <1 copy/cell); the “Copies/cell class, CLL2” value is 3 (3 indicates 6-25 copies per cell); the “Copies/cell class, CLL4” value is on record as 3 (3 indicates 6-25 copies per cell); the “Copies/cell class, JY” value is 4 (4 indicates >25 copies per cell). Moreover, in test [1], the “Copies/cell class, ALL1” value was 1 (1 indicates <1 copy/cell); the “Copies/cell class, HCL1” value is 2 (2 indicates 1-5 copies/cell); the “Copies/cell class, T Cell” value is listed as 1 (1 indicates <1 copy/cell); the “Copies/cell class, BM” value is recorded as 1 (1 indicates <1 copy/cell). In the test with HLA-B*0702, the L/M result is listed as “L”.

“336 (RPR[pS]PRQNSI; listed as Homo sapiens) [compound 336]”: the “Copies/cell class, AML1” value in test [1] is listed as 2 (2 indicates 1-5 copies/cell). The L/M result with HLA-B*0702 is “L”.

“307 (RPA[pS]AGAML; listed as Homo sapiens) [compound 307]”: in test [1], the “Copies/cell class, AML1” value is given as 1 (1 indicates <1 copy/cell); the “Copies/cell class, CLL2” value is reported as 2 (2 indicates 1-5 copies/cell); the “Copies/cell class, JY” value was 4 (4 indicates >25 copies per cell); the “Copies/cell class, ALL1” value is 4 (4 indicates >25 copies per cell). Moreover, in test [1], the “Copies/cell class, HCL1” value is on record as 2 (2 indicates 1-5 copies/cell); the “Copies/cell class, B Cell” value was 1 (1 indicates <1 copy/cell); the “Copies/cell class, T Cell” value is given as 3 (3 indicates 6-25 copies per cell); the “Copies/cell class, BM” value is recorded as 1 (1 indicates <1 copy/cell). In addition, the L/M result with HLA-B*0702 is given as “L”.

As for “282 (KPA[pS]PARRL; listed as Homo sapiens) [compound 282]”, in test [1], the “Copies/cell class, CLL2” value is reported as 1 (1 indicates <1 copy/cell); the “Copies/cell class, JY” value is on record as 1 (1 indicates <1 copy/cell); the “Copies/cell class, ALL1” value is reported as 1 (1 indicates <1 copy/cell); the “Copies/cell class, HCL1” value is on record as 1 (1 indicates <1 copy/cell). Further, the L/M entry in the test with HLA-B*0702 was “L”.

Regarding “283 (KPA[pS]PKFIVTL; listed as Homo sapiens) [compound 283]”, the “Copies/cell class, AML1” value in test [1] is recorded as 2 (2 indicates 1-5 copies/cell). Besides, the L/M result with HLA-B*0702 is listed as “L”.

Consider “334 (RPR[pS]PGSNSKV; listed as Homo sapiens) [compound 334]”, for which the “Copies/cell class, AML1” value in test [1] is 1 (1 indicates <1 copy/cell). Moreover, the L/M result with HLA-B*0702 is on record as “L”.

Turning to “328 (RPRPV[pS]PSSL; listed as Homo sapiens) [compound 328]”, the “Copies/cell class, AML1” value in test [1] is on record as 1 (1 indicates <1 copy/cell). In addition, the L/M entry with HLA-B*0702 is “L”.
